Experiments:
[1] = Solubility of the substrates in the alanine dehydrogenase-coupled kinetic assay; type: physicochemical; conditions: assay buffer; kinetic parameters cannot be determined
Source text: (§1) The alanine dehydrogenase-coupled assay has been used to determine some early kinetic parameters for p6 and p7. Reactions with C3 to C8 for p6 and C4 to CS have been fully characterised and show no clear trend in terms of reaction rate vs. carbon chain length. For C11 and C12, the solubility of the substrates is extremely low, and as such, kinetic parameters cannot be determined.
as §1, with “all the aforementioned enzymes.” for “p6 and p7.”, “C8 for p7” for “CS”

[2] = Coupled dehydrogenase assays for transaminase activity of the Pseudomonas sp. proteins and ancestral reconstructions; type: biochemical; conditions: for pH optimum: UV absorbance at 340 nm, pH range 7.5-10; for pH optimum / activity with ω-amino acids including long chain C11 and C12: 28° C.; for activity with ω-amino acids including long chain C11 and C12: 340 nm, pH 7.5-10; for activity of ancestral reconstruction proteins in the coupled assays: E. coli expressed, purified proteins
Protocol: Activity for each protein was assessed using coupled dehydrogenase assays as described previously. A typical assay comprised:
Substrate (6.25 mM final concentration in potassium phosphate buffer)
Co-substrate (pyruvate (0.5 mM final concentration) or α-KG (0.25 mM final concentration)
NAD (1.25 mM final concentration)
Dehydrogenase (1 μL from ADH-≧35 units/mL stock solution or GDH≧35 units/mg protein stock)
Transaminase (final concentration dependent)
Potassium phosphate buffer (100 mM)
UV absorbance at 340 nm was recorded at 28° C. over a pH range of 7.5-10 with a range of substrates.
Proteins encoded by p7N6, p7N15, p7N16, p7N17, p7N43 and p7N48 were expressed using an E. coli recombinant expression platform and subsequently purified.
Each of the proteins were assayed for substrate specificity. Substrates identified by assaying for each of the proteins are summarized below.

## NCCCCCCCCCCC(=O)O [C11, 11-aminoundecanoic acid]
[1]
  solubility of the substrates: extremely low

## NCCCCCCCCCCCC(=O)O [C12, 12-aminododecanoic acid]
[1]
  solubility of the substrates: extremely low

B1: p7: pyruvate: ω-amino acid transaminase from Pseudomonas sp., amino acid sequence SEQ ID NO:2 (protein, listed as Pseudomonas sp.)
chain: MGSSHHHHHHSSGLVPRGSHMTDYAKLFEQDRAHFMHPSTHAHDHASGALPGRIITGASGVRIRDHQGRELLDAFAGLYCVNIGYGRLEVADAIHEQAKQLAYYHTYVGHASEAIIELSARIIRDWAPAGMKKVYYGLSGSDANETQVKLVRYYNNVLGRPQKKKIISRQRGYHGSGIVTGSLTGLASFHQHFDLPVEGVKHTLCPHFYKAPAGMDEAAFVRHCAQELENLILAEGPDTVAAFIGEPVMGTGGIIVPPKGYWEAIQAVLAKYDVLLIADEVVCAFGRLGDKMGSQRHAMRPDLITTAKGLTSAYAPLSAVIVGEKVWDVIDSASTREGAMGHGWTYSGHPICAAAALANLDILERENITANAADVGGYLNQQLRQAFEGHPLVGEVRGDGMLAALEFMADREARTPFDAALKVGPKVSAACLERGMIARAMPHGDILGFAPPLVLSRAEADEVVGIAKAAVDAVAAEVL
[2]
  pH optimum: ~10
[2]; coupled dehydrogenase assay
  smallest substrate accepted: C4 (γ-aminobutyrate; GABA)
  activity with ω-amino acids including long chain C11 and C12: shown the desired activity with ω-amino acids, notably including long chain amino acids C11 and C12

B2: p4: pyruvate: ω-amino acid transaminase from Pseudomonas sp., amino acid sequence SEQ ID NO:6 (protein, listed as Pseudomonas sp.)
chain: MTKQTSAQTQHWQALSREHHLAPFTDYKQLNEKGARIITKAEGVYLWDSEGNKILDGMAGLWCMNVGYGRKELAEVAYKQMLELPYYNLFFQTAHPPALELAKAIADIAPEGMNHVFFTGSGSESNDTVLRMVRHYWSIKGKPQKKVVIGRWNGYHGSTVAGVSLGGMKALHSQGDLPIPGIVHIAQPYWYGEGGDMSAEEFGVWAAEQLEKKILEVGEENVAAFIAEPIQGAGGVIVPPDTYWPKIREILAKYEILFIADEVICGFGRTGEWFGSQYYGNAPDLMPIAKGLTSGYIPMGGVIVRDEIVDTLNEGGEFYHGFTYSGHPVAAAVALENIRILREEKIVETVKAETAPYLQKRWQELADHPLVGEARGVGMVGALELVKNKKTRERFENGVGMLCREHCFRNGLIMRAVGDTMIISPPLVITKPEIDELITLARKCLDQTAAVALS
[2]
  pH optimum: ~10
[2]; coupled dehydrogenase assay
  activity with ω-amino acids including long chain C11 and C12: shown the desired activity with ω-amino acids, notably including long chain amino acids C11 and C12

B3: p7N6: de novo peptide sequence based on p7, produced by ancestral reconstruction; SEQ ID NO:7 (protein)
chain: MTDFDQLFEQDRAHFMHPSTHAHDHASGALPGRIITGASGIRIRDHEGRELIDAFAGLYCVNIGYGRTEVADAIYKQAKELAYYHTYVGHSTEAIIELSSRIIRDWAPAGMKKVYYGLSGSDANETQIKLVRYYNNVLGRPQKKKIISRQRGYHGSGIMTGSLTGLPSFHQHFDLPVEGIKHTVCPHWYKAPAGMDEAAFVRYCADELEKLILAEGPDTVAAFIGEPVMGTGGIIVPPKGYWEAIQAVLNKYDVLLIADEVVCAFGRLGSKMGSQRYGMRPDLITTAKGLTSAYAPLSAVIVGEKVWDVIEKASQKEGAMGHGWTYSGHPICAAAALANLDILERENLTANAADVGAYLNQRLRETFEGHPLVGEVRGDGMLAALEFMADREARTPFDPALKVGPKVSAACLEDGMIARAMPHGDILGFAPPLVLTRAEADEIVGIAKAAVDEVAGEVL
modifications: Molecule produced by ancestral reconstruction
[2]
  activity of ancestral reconstruction proteins in the coupled assays: activity in accordance with p7

B4: p7N15: de novo peptide sequence based on p7, produced by ancestral reconstruction; SEQ ID NO:8 (protein)
chain: MTDLDQLFEMDRAHFMHPSTHAHDHASGALPGRIITGGKGIRIQDHEGREYIDAFAGLYCVNIGYGRTEVADAIYEQAKELAYYHTYVGHSTEAIIELSSRIIRDWAPAGMKKVYYGMSGSDANETQIKLVWYYNNVLGRPQKKKIISRQRGYHGSGIMTGSLTGLPSFHQHFDLPIERIKHTVCPHWYKAPAGMSEAQFVRYCADELEKLILAEGPDTVAAFIGEPVMGTGGIIPPPQGYWEAIQAVLNKYDILLIADEVVCGFGRLGSKMGSQHYGMKPDLITVAKGLTSAYAPLSGVIVGEKVWDVIEKGSQEHGPMGHGWTYSGHPICAAAALANLDILERENLTGNAADVGAYLQQRLRETFGGHPLVGEVRGVGMLAALEFMADKDARTPFDPALKVGPKVSAACLEDGMIARAMPHGDILGFAPPLVITRAEVDEIVGIAKQAVDEVADEVL
modifications: Molecule produced by ancestral reconstruction
[2]
  activity of ancestral reconstruction proteins in the coupled assays: activity in accordance with p7

B5: p7N16: de novo peptide sequence based on p7, produced by ancestral reconstruction; SEQ ID NO:9 (protein)
chain: MQSLDQLFEMDRAHFMHPSTHAHDHASGALPGRIITGGKGIRIEDHEGREYIDAFAGLYCVNIGYGRTEVADAIYEQAKQLAYYHTYVGHSTDAIIELSSRIIRDWAPAGMKKVYYGMSGSDANETQIKLVWYYNNVLGRPNKKKIISRERGYHGSGIVTGSLTGLPSFHQHFDLPIDRVKHTVCPHWYRAPAGMSEAQFVAYCVEELEKLIAREGADTIAAFIAEPVMGTGGIIPPPQGYWEAIQAVLRKHDILLIADEVVCGFGRLGSKMGSQHYGIKPDLITVAKGLTSAYAPLSGVIVGEKVWDVIEKGSQEHGPMGHGWTYSGHPICAAAALANLDILERENLTGNAADVGAYLQQRLHEAFGAHPLVGEVRGVGMLAALEFMADKDARTPFDPALKVGPKVSAAALEDGMIARAMPHGDILGFAPPLVTTRAEVDEIVGIAKQAVDEVADEVL
modifications: Molecule produced by ancestral reconstruction
[2]
  activity of ancestral reconstruction proteins in the coupled assays: activity in accordance with p7

B6: p7N17: de novo peptide sequence based on p7, produced by ancestral reconstruction; SEQ ID NO:10 (protein)
chain: MTSLDQLFEEDRAHFMHPSTHAHDHASGALPGKIVTGGKGIRIEDHQGREYIDAFAGLYCVNIGYGRTEVADAIYEQAKQLAYYHTYVGHSTDAIIELSSRIIRDWAPAGMKKVYYGMSGSDANETQIKIVWYYNNVLGRPNKKKIISRERGYHGSGIVTGSLTGLPSFHQHFDLPIDRVKHTVCPHWYKAPAGMSEAQFVAYCVEELEKLIAREGADTIAAFIAEPVMGTGGIIAPPQGYWEAIQAVLRKHDILLISDEVVCGFGRLGSKMGAQHYGIKPDLITVAKGLTSAYAPLSGVIVGEKVWDVIEKGSQEHGPMGHGWTYSGHPICAAAALANLDILERENLTGNAADVGAYLQQRLHEAFGAHPLVGEVRGVGMLAALEFMADKDARTPFDPALKVGPKVSAAALEDGVIARAMPHGDILGFAPPLVTTRAEVDEIVGIVKQAVDEVADEVL
modifications: Molecule produced by ancestral reconstruction
[2]
  activity of ancestral reconstruction proteins in the coupled assays: activity in accordance with p7

B7: p7N43: de novo peptide sequence based on p7, produced by ancestral reconstruction; SEQ ID NO:11 (protein)
chain: MTSLEQLLEMDRAHFMHPSTHAYDHASGALPGRIITGGKGIRIEDHEGREYIDAFAGLYCVNIGYGREEVADAIYEQAKQLAYYHTYVGHSNDPVIELSSRIIEDWAPAGMKKVFYGMSGSDANETQIKLVWYYNNVLGRPNKKKIIARERSYHGSGIVTGSLTGLPSFHQHFDLPIDRVKHTVCPHWYNAPPGMSEAQFVAYCVEELEKLIAREGADTIAAFIAEPVMGTGGIVPPPQGYWEAIQAVLRKHDILLIADEVVCGFGRLGSKTGSEHYGIKPDLITVAKGLTSAYAPLSAVIVSEKVWDVIEKGSREHGVMGHGWTYSGHPVCAAAALANLDILERENLTGNAADVGAYLQQRLHEAFGAHPLVGEVRGVGMLAALEFMADKGARTPFDPALKVSQKVAAAALEDGLIVRALPHGDILGFAPPLVTTRAEVDEIVAIAKEAFDEVADAVL
modifications: Molecule produced by ancestral reconstruction
[2]
  activity of ancestral reconstruction proteins in the coupled assays: activity in accordance with p7

B8: p7N48: de novo peptide sequence based on p7, produced by ancestral reconstruction; SEQ ID NO:12 (protein)
chain: MTDTDDLLEMDRAHFFHPSTHLRDHASGELPGRIITGGKGIRIQDSEGREYIDAFAGLYCVNVGYGRTEIADAIYEQAKELAYYHTYVGHSNEPIIELSERIIREWAPAGMSKVYYGMSGSDANETQIKLVWYYNNVLGRPQKKKIISRQRGYHGSGIMTGSLTGLPAFHNHFDLPLEPIRHTTCPHYYRAPAGMSEAEFSRHCADELEKMILAEGPDTVAAFIGEPVMGTGGIVPPPEGYWEAIQAVLNKYDILLIADEVVCGFGRTGSMFGSHHYGMKPDLITVAKGLTSAYAPLSGVIVGEKVWKVLEQGSDQYGPIGHGWTYSGHPICAAAALANLDIIERENLTGNAADTGAYFQQRMRETFGDHPLVGEVRGVGLMAALEFVADKDKRTRFDPSLKVGPRVSAACLEDGMIARAMPHGDILGFAPPLVITRAEVDEIVDIAKQAVDAVADELV
modifications: Molecule produced by ancestral reconstruction
[2]
  activity of ancestral reconstruction proteins in the coupled assays: activity in accordance with p7
